Experimental findings from PMC9303355 (Diabetes, Obesity & Metabolism, 2022) are described below.

Format in all cases: in vivo, healthy subjects (human)
Series [1] can be described thus: Pharmacokinetics of plasma insulin after a single subcutaneous dose. To be noted: healthy subjects, single 0.3 IU/kg s.c., PP population, median.
In series [2] the test system is blood glucose (glucose infusion rate). Kind of series: Automated euglycaemic glucose clamp. The conditions noted are these: healthy subjects; single 0.3 IU/kg s.c.; PP population; median, N=39/38.
The next series is described as follows: Safety assessments. The conditions noted are these: single 0.3 IU/kg s.c.

Consider “Humulin‐R: US‐approved reference regular recombinant human insulin product (Eli Lilly and Company)”, for which the “λz (terminal elimination rate constant of insulin)” value in series [1] (N=40/41) is 0.5373 h⁻¹. Moreover, the “t50%‐ins(late)” value in series [1] (N=41) came to 6.23 h. In series [2], the “t50%‐GIR(early)” value is recorded as 1.33 h, the “t50%‐GIR(late)” value worked out at 7.03 h and the “tGIR.max (time to maximum glucose infusion rate)” value came to 4.15 h. Moreover, the tolerability result in “Safety assessments” (healthy subjects) was “generally well tolerated”. Besides, in “Safety assessments” (safety analysis set), the “headache (number of events)” value is reported as “eight”, the “injection‐site reactions (number of AEs)” value is “four”, the subjects with headache result is “eight” and the “subjects with injection‐site reactions” value is recorded as “three”.
